In test [1] the target is T1, cTnI protein (ab207624; Abcam) (UniProt P19429 1-210, limits assumed).
T1 construct: also called cardiac troponin I
Briefly: PPR-based homogeneous assay, specificity test (trastuzumab-DNA1 with pertuzumab-DNA2). The method, then:
(§1) In a homogeneous assay to detect the target substance, samples were mixed with four conjugates (TEVP-first DNA′, BLZ-second DNA′, first binder-first DNA agent, second binder-second DNA) and […] CENTA™ (EMD Millipore, USA) in a reaction buffer (137 mM NaCl, 2.7 mM KCl, 10 mM Na₂HPO₄, 2 mM KH₂PO₄, 40 mM MgCl₂, 10 mM DTT, 0.5% (w/v) BSA, and pH 7.4). Hydrolysis of CENTA™ by β-lactamase was monitored by measuring absorbance (A₄₀₅) at 405 nm using a plate reader (synergy HT multi-detection reader; BioTek Instruments, USA) at 37° C. for 1 hour. The absorbance signal (ΔAbs=A₄₀₅ at 60 min−A₄₀₅ at 1 min) was plotted as a function of the concentration of the target substance. All experiments were performed at least three times and the limit of detection (LOD) was calculated as the sum of the mean ΔAbs of the blank and three times the standard deviation. In the competitive immunoassay for small molecule detection, an antibody against the target was further contained in the reaction solution. The following proteins were used as targets: HER2 (extracellular domain; 10004-H₀₈H; Sino Biological, China), cTnI protein (ab207624; Abcam, United Kingdom), thrombin (ab62452; Abcam), digoxigenin (D9026; Sigma, USA), digoxigenin polyclonal antibody (PA1-85378; Thermo Fisher Scientific, USA) and hCG monoclonal antibody (MA5-14680; Thermo Fisher Scientific).

Test [2] addresses thrombin (ab62452; Abcam) (human, UniProt P00734 328-622). Described as above. As to the method: as §1

T1 sequence (P19429 whole entry): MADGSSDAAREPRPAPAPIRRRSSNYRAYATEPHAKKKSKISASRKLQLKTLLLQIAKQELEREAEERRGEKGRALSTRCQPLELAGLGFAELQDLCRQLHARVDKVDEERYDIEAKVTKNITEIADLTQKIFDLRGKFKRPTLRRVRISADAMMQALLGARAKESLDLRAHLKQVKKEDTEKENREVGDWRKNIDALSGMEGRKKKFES

B1: pertuzumab-second DNA conjugate (antibody, V domains shown)
VH: EVQLVESGGGLVQPGGSLRLSCAASGFTFTDYTMDWVRQAPGKGLEWVADVNPNSGGSIYNQRFKGRFTLSVDRSKNTLYLQMNSLRAEDTAVYYCARNLGPSFYFDYWGQGTLVTVSS
VL: DIQMTQSPSSLSASVGDRVTITCKASQDVSIGVAWYQQKPGKAPKLLIYSASYRYTGVPSRFSGSGSGTDFTLTISSLQPEDFATYYCQQYYIYPYTFGQGTKVEIKR
modifications: amine groups conjugated to amine-modified second DNA (SEQ ID NO: 2) via a bis-NHS ester linker; heterogeneous product, sites not stated
notes: IgG made in HEK293F cells and conjugated to ssDNA; also called pertuzumab-DNA2; P-D2
For B1, the binding result in test [1] and in test [2] was “no binding (tested: 10 nM)” each time.

For the origin of these results see patent US20240151714A1 (AJOU UNIVERSITY INDUSTRY ACADEMIC COOPERATION FOUNDATION, published 2024).
